The text below walks through data of US6265551A, “Form of dipeptidylpeptidase IV (CD26) found in human serum, antibodies thereto, and uses thereof” (Dana-Farber Cancer Institute, Inc., priority 1996, dated 2001).

Substrate in this data set: NCC(=O)N1CCC[C@H]1C(=O)Nc1ccc([N+](=O)[O-])cc1
As to the kind of experiment: purified protein, by the assay type. The conditions noted are these: other: rsCD26; Lineweaver-Burke transformation; substrate at different concentrations; 20.0 °C.

Protocol: The DPPIV enzyme activities of the rsCD26 and serum DPPIV were analyzed by Michaelis-Menten kinetics by assessing kinetics of hydrolysis of substrate at different concentrations.
DPPIV activity: The primary substrate used for determining DPPIV activity in all assays was Gly-Pro-p-nitroanilide (Gly-Pro-pNA; Sigma), which is hydrolyzed by DPPIV to release pNA absorbing strongly at 405 nm. Kinetic assays were performed using varying amounts of substrate in order to obtain estimates of the Km and Vmax using standard Michaelis-Menten kinetics. For screening assays of DPPIV activity, 150 ml of substrate was used at 1 mg/ml (2 mM final concentration) in phosphate buffer (pH7.6, 100 mM) in 96 well flat-bottomed microtiter plates together with 10 ml of appropriately diluted sample. For samples obtained after elution from the s-Sepharose column, the pH was raised to pH7.6 by addition of 25 μl of 1M Tris-HCl, pH7.6 to the reaction mixture. One unit (U) of enzyme activity was defined as the amount of enzyme that cleaved 1 mmol of Gly-Pro-pNA/min at pH7.6 and 20° C. […] The pH optimum was determined substituting phosphate buffer (100 mM, pH4.5-pH9) in place of standard incubation buffer.

B1: recombinant soluble CD26 (rsCD26), full extracellular domain of human T cell membrane CD26/DPPIV, 105 kDa form, from transfected CHO cells (Homo sapiens) (protein)
chain: NKGTDDATADSRKTYTLTDYLKNTYRLKLYSLRWISDHEYLYKQENNILVFNAEYGNSSVFLENSTFDEFGHSINDYSISPDGQFILLEYNYVKQWRHSYTASYDIYDLNKRQLITEERIPNNTQWVTWSPVGHKLAYVWNNDIYVKIEPNLPSYRITWTGKEDIIYNGITDWVYEEEVFSAYSALWWSPNGTFLAYAQFNDTEVPLIEYSFYSDESLQYPKTVRVPYPKAGAVNPTVKFFVVNTDSLSSVTNATSIQITAPASMLIGDHYLCDVTWATQERISLQWLRRIQNYSVMDICDYDESSGRWNCLVARQHIEMSTTGWVGRFRPSEPHFTLDGNSFYKIISNEEGYRHICYFQIDKKDCTFITKGTWEVIGIEALTSDYLYYISNEYKGMPGGRNLYKIQLSDYTKVTCLSCELNPERCQYYSVSFSKEAKYYQLRCSGPGLPLYTLHSSVNDKGLRVLEDNSALDKMLQNVQMPSKKLDFIILNETKFWYQMILPPHFDKSKKYPLLLDVYAGPCSQKADTVFRLNWATYLASTENIIVASFDGRGSGYQGDKIMHAINRRLGTFEVEDQIEAARQFSKMGFVDNKRIAIWGWSYGGYVTSMVLGSGSGVFKCGIAVAPVSRWEYYDSVYTERYMGLPTPEDNLDHYRNSTVMSRAENFKQVEYLLIHGTADDNVHFQQSAQISKALVDVGVDFQAMWYTDEDHGIASSTAHQHIYTHMSHFIKQCFSLP
In the case of B1, the Km (in general, the substrate concentration at which the rate is half of its maximum) is 280 µM.
